{"source": "patent US20250269012A1", "about": "(AKAMIS BIO, published 2025)"}
{"target": "T1, EpCAM (human, UniProt P16422 24-314)", "T1 construct": "whole, on cells; also called EpCAM cell surface target antigen on A549 and SKOV3 cells", "T1 sequence (looked up)": "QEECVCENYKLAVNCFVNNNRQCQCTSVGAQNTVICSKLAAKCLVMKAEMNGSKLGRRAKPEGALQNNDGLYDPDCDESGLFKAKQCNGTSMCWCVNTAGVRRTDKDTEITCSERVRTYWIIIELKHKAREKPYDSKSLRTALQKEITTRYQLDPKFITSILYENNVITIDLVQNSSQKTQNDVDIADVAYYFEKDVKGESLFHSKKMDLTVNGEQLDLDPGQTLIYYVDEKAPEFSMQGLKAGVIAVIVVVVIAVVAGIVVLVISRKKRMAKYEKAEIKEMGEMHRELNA", "test": "flow cytometry, supernatant of transfected A549 cells on fresh A549 cells", "protocol": "These plasmids were transfected into A549 human lung tumour cells and cells cultured for 72 hours. Cell culture supernatants (SN) containing secreted bispecific proteins were collected and added to fresh untransfected A549 cells in suspension and incubated for 1.5 hours at room temperature. During this time, the bispecific proteins present in the SN can bind to the A549 cells through their anti-EpCAM ScFv or anti-HER2 ScFV portion. […] For designs having CD19 as CAR-T target, the CD19 extracellular domain portion of the protein was detected by flow cytometry using an anti-CD19 antibody."}
{"binder": "anti-EpCAM-ScFv-RAET1G3 fusion protein (without a C-terminal tag) (other, also called bispecific protein of NG-1111) ELVMTQSPSSLTVTAGEKVTMSCKSSQSLLNSGNQKNYLTWYQQKPGQPPKLLIYWASTRESGVPDRFTGSGSGTDFTLTISSVQAEDLAVYYCQNDYSYPLTFGAGTKLEIKGGGGSGGGGSGGGGSEVQLLEQSGAELVRPGTSVKISCKASGYAFTNYWLGWVKQRPGHGLEWIGDIFPGSGNIHYNEKFKGKATLTADKSSSTAYMQLSSLTFEDSAVYFCARLRNWDEPMDYWGQGTTVTVSSGGGGSGLADPHSLCYDITVIPKFRPGPRWCAVQGQVDEKTFLHYDCGSKTVTPVSPLGKKLNVTTAWKAQNPVLREVVDILTEQLLDIQLENYIPKENRMWTTVHPGARKMKEKWENDKDMTMSFHYISMGDCTGWLEDFLMGMDSTLEPSAGGTV", "binding result": "binds"}
{"binder": "anti-EpCAM-ScFv-rigid linker-human CD19 EC domain fusion protein (without a C-terminal tag) (other, also called bispecific protein of NG-1114; bispecific protein of NG-1116) ELVMTQSPSSLTVTAGEKVTMSCKSSQSLLNSGNQKNYLTWYQQKPGQPPKLLIYWASTRESGVPDRFTGSGSGTDFTLTISSVQAEDLAVYYCQNDYSYPLTFGAGTKLEIKGGGGSGGGGSGGGGSEVQLLEQSGAELVRPGTSVKISCKASGYAFTNYWLGWVKQRPGHGLEWIGDIFPGSGNIHYNEKFKGKATLTADKSSSTAYMQLSSLTFEDSAVYFCARLRNWDEPMDYWGQGTTVTVSSTPSHLSHILPSFGLPTFNPEEPLVVKVEEGDNAVLQCLKGTSDGPTQQLTWSRESPLKPFLKLSLGLPGLGIHMRPLAIWLFIFNVSQQMGGFYLCQPGPPSEKAWQPGWTVNVEGSGELFRWNVSDLGGLGCGLKNRSSEGPSSPSGKLMSPKLYVWAKDRPEIWEGEPPCVPPRDSLNQSLSQDLTMAPGSTLWLSCGVPPDSVSRGPLSWTHVHPKGPKSLLSLELKDDRPARDMWVMETGLLLPRATAQDAGKYYCHRGNLTMSFHLEITAR", "binding result": "binds"}
{"binder": "anti-EpCAM-ScFv-human CD19 EC domain fusion protein (without a C-terminal tag) (other, also called bispecific protein of NG-1109) ELVMTQSPSSLTVTAGEKVTMSCKSSQSLLNSGNQKNYLTWYQQKPGQPPKLLIYWASTRESGVPDRFTGSGSGTDFTLTISSVQAEDLAVYYCQNDYSYPLTFGAGTKLEIKGGGGSGGGGSGGGGSEVQLLEQSGAELVRPGTSVKISCKASGYAFTNYWLGWVKQRPGHGLEWIGDIFPGSGNIHYNEKFKGKATLTADKSSSTAYMQLSSLTFEDSAVYFCARLRNWDEPMDYWGQGTTVTVSSGGGGSPEEPLVVKVEEGDNAVLQCLKGTSDGPTQQLTWSRESPLKPFLKLSLGLPGLGIHMRPLAIWLFIFNVSQQMGGFYLCQPGPPSEKAWQPGWTVNVEGSGELFRWNVSDLGGLGCGLKNRSSEGPSSPSGKLMSPKLYVWAKDRPEIWEGEPPCVPPRDSLNQSLSQDLTMAPGSTLWLSCGVPPDSVSRGPLSWTHVHPKGPKSLLSLELKDDRPARDMWVMETGLLLPRATAQDAGKYYCHRGNLTMSFHLEITARPVLWHWLLRTGGWK", "binding result": "binds"}
{"binder": "RAET1G3-anti-EpCAM-ScFv fusion protein (without a C-terminal tag) (other, also called bispecific protein of NG-1112) GLADPHSLCYDITVIPKFRPGPRWCAVQGQVDEKTFLHYDCGSKTVTPVSPLGKKLNVTTAWKAQNPVLREVVDILTEQLLDIQLENYIPKENRMWTTVHPGARKMKEKWENDKDMTMSFHYISMGDCTGWLEDFLMGMDSTLEPSAGGTVGGGGSELVMTQSPSSLTVTAGEKVTMSCKSSQSLLNSGNQKNYLTWYQQKPGQPPKLLIYWASTRESGVPDRFTGSGSGTDFTLTISSVQAEDLAVYYCQNDYSYPLTFGAGTKLEIKGGGGSGGGGSGGGGSEVQLLEQSGAELVRPGTSVKISCKASGYAFTNYWLGWVKQRPGHGLEWIGDIFPGSGNIHYNEKFKGKATLTADKSSSTAYMQLSSLTFEDSAVYFCARLRNWDEPMDYWGQGTTVTVSS", "binding result": "no binding"}
{"binder": "anti-EpCAM-ScFv-flexible linker-human CD19 EC domain fusion protein (without a C-terminal tag) (other, also called bispecific protein of NG-1113; bispecific protein of NG-1115) ELVMTQSPSSLTVTAGEKVTMSCKSSQSLLNSGNQKNYLTWYQQKPGQPPKLLIYWASTRESGVPDRFTGSGSGTDFTLTISSVQAEDLAVYYCQNDYSYPLTFGAGTKLEIKGGGGSGGGGSGGGGSEVQLLEQSGAELVRPGTSVKISCKASGYAFTNYWLGWVKQRPGHGLEWIGDIFPGSGNIHYNEKFKGKATLTADKSSSTAYMQLSSLTFEDSAVYFCARLRNWDEPMDYWGQGTTVTVSSGAGGSGGSSGSDGASGSRPEEPLVVKVEEGDNAVLQCLKGTSDGPTQQLTWSRESPLKPFLKLSLGLPGLGIHMRPLAIWLFIFNVSQQMGGFYLCQPGPPSEKAWQPGWTVNVEGSGELFRWNVSDLGGLGCGLKNRSSEGPSSPSGKLMSPKLYVWAKDRPEIWEGEPPCVPPRDSLNQSLSQDLTMAPGSTLWLSCGVPPDSVSRGPLSWTHVHPKGPKSLLSLELKDDRPARDMWVMETGLLLPRATAQDAGKYYCHRGNLTMSFHLEITAR", "binding result": "binds"}
{"binder": "anti-EpCAM-ScFv-rigid linker-RAET1G3 fusion protein (without a C-terminal tag) (other, also called bispecific protein of NG-1118) ELVMTQSPSSLTVTAGEKVTMSCKSSQSLLNSGNQKNYLTWYQQKPGQPPKLLIYWASTRESGVPDRFTGSGSGTDFTLTISSVQAEDLAVYYCQNDYSYPLTFGAGTKLEIKGGGGSGGGGSGGGGSEVQLLEQSGAELVRPGTSVKISCKASGYAFTNYWLGWVKQRPGHGLEWIGDIFPGSGNIHYNEKFKGKATLTADKSSSTAYMQLSSLTFEDSAVYFCARLRNWDEPMDYWGQGTTVTVSSTPSHLSHILPSFGLPTFNGLADPHSLCYDITVIPKFRPGPRWCAVQGQVDEKTFLHYDCGSKTVTPVSPLGKKLNVTTAWKAQNPVLREVVDILTEQLLDIQLENYIPKENRMWTTVHPGARKMKEKWENDKDMTMSFHYISMGDCTGWLEDFLMGMDSTLEPSAGGTV", "binding result": "binds"}
{"binder": "human CD19 EC domain-anti-EpCAM-ScFv fusion protein (without a C-terminal tag) (other, also called bispecific protein of NG-1110) PEEPLVVKVEEGDNAVLQCLKGTSDGPTQQLTWSRESPLKPFLKLSLGLPGLGIHMRPLAIWLFIFNVSQQMGGFYLCQPGPPSEKAWQPGWTVNVEGSGELFRWNVSDLGGLGCGLKNRSSEGPSSPSGKLMSPKLYVWAKDRPEIWEGEPPCVPPRDSLNQSLSQDLTMAPGSTLWLSCGVPPDSVSRGPLSWTHVHPKGPKSLLSLELKDDRPARDMWVMETGLLLPRATAQDAGKYYCHRGNLTMSFHLEITARPVLWHWLLRTGGWKGGGGSELVMTQSPSSLTVTAGEKVTMSCKSSQSLLNSGNQKNYLTWYQQKPGQPPKLLIYWASTRESGVPDRFTGSGSGTDFTLTISSVQAEDLAVYYCQNDYSYPLTFGAGTKLEIKGGGGSGGGGSGGGGSEVQLLEQSGAELVRPGTSVKISCKASGYAFTNYWLGWVKQRPGHGLEWIGDIFPGSGNIHYNEKFKGKATLTADKSSSTAYMQLSSLTFEDSAVYFCARLRNWDEPMDYWGQGTTVTVSS", "binding result": "no binding"}
{"binder": "anti-EpCAM-ScFv-flexible linker-RAET1G3 fusion protein (without a C-terminal tag) (other, also called bispecific protein of NG-1117) ELVMTQSPSSLTVTAGEKVTMSCKSSQSLLNSGNQKNYLTWYQQKPGQPPKLLIYWASTRESGVPDRFTGSGSGTDFTLTISSVQAEDLAVYYCQNDYSYPLTFGAGTKLEIKGGGGSGGGGSGGGGSEVQLLEQSGAELVRPGTSVKISCKASGYAFTNYWLGWVKQRPGHGLEWIGDIFPGSGNIHYNEKFKGKATLTADKSSSTAYMQLSSLTFEDSAVYFCARLRNWDEPMDYWGQGTTVTVSSGAGGSGGSSGSDGASGSRGLADPHSLCYDITVIPKFRPGPRWCAVQGQVDEKTFLHYDCGSKTVTPVSPLGKKLNVTTAWKAQNPVLREVVDILTEQLLDIQLENYIPKENRMWTTVHPGARKMKEKWENDKDMTMSFHYISMGDCTGWLEDFLMGMDSTLEPSAGGTV", "binding result": "binds"}
